According to patent US20240294623A1 (SCHOLAR ROCK, published 2024):

Key:
hLTBP3-proTGFβ1 [1] = target: T1, hLTBP3-proTGFβ1 (human, UniProt Q9NS15 44-1303; P01137 30-390, limits assumed); assay: SPR (Biacore), Fab
T1 construct: LLC as m1; Same id used for the cell-made complex in reporter assays; also called human LTBP3-proTGFβ1 complex; LTBP3-ProTGFb1
Experimental: (§1) Surface plasmon resonance (SPR) was used to measure binding kinetics using a BIACORE® system. […] Experiments were carried out with eight types of LLCs, namely, hLTBP1-proTGFβ1, mLTBP1-proTGFβ1, hLTBP3-proTGFβ1, mLTBP3-proTGFβ1, hGARP-proTGFβ1, mGARP-proTGFβ1, hLRRC33-proTGFβ1 and mLRRC33-proTGFβ1.
(§2) In vitro binding kinetics (on/off rates) were measured in Biacore-based assays and affinities were determined against all four known LLCs using both human and murine counterparts for each. Based on the association rate and dissociation rate, KD was calculated for each. In addition, relative affinities, as compared to the reference antibody as a benchmark, were calculated and expressed as “fold difference” relative to the reference antibody.
(§3) A BIACORE® system was employed to determine the monovalent binding affinity and the kinetic parameters for antigen binding of test antibodies. The binding kinetics were evaluated by surface plasmon resonance using Biacore 8K (GE Healthcare). A Biotin CAP sensor chip was used to capture the biotinylated antigens. […] Multi-cycle kinetics was employed where each analyte concentration was injected in a separate cycle and the sensor chip surface was regenerated after each cycle. All the assays were carried out in freshly prepared 1×HBS-EP+buffer (10 mM HEPES, 150 mM NaCl, 3 mM EDTA, 0.05% Tween20, pH 7.4). Data for all the analyte concentrations for each interaction were fit globally to a 1:1 binding model to obtain the kinetic parameters. The Sensorgram for 0 nM analyte concentration was used as reference.

mLTBP1-proTGFβ1 [2] = target: T2, mLTBP1-proTGFβ1 (mouse); assay: SPR (Biacore), Fab
T2 construct: Murine LLC; also called murine LTBP1-proTGFβ1 complex
Experimental: as §1, §2, §3

mGARP-proTGFβ1 = target: T3, mGARP-proTGFβ1 (mouse); assay: SPR (Biacore), Fab
T3 construct: Murine LLC; also called murine GARP-proTGFβ1 complex
Experimental: as §1, §2, §3

hLTBP1-proTGFβ1 [3] = target: T4, hLTBP1-proTGFβ1 (human, UniProt Q14766 347-1721; P01137 30-390, limits assumed); assay: SPR (Biacore), Fab
T4 construct: Large latent complex (LLC): proTGFβ1 dimer disulfide-linked to one presenting molecule; recombinant, purified, biotinylated in BLI/SPR; The same id is used for the complex made by transfected cells in the reporter assays; also called human LTBP1-proTGFβ1 complex; LTBP1-ProTGFb1
Experimental: as §1, §2, §3

hGARP-proTGFβ1 = target: T5, hGARP-proTGFβ1 (human, UniProt Q14392 18-627; P01137 30-390, limits assumed); assay: SPR (Biacore), Fab
T5 construct: LLC as m1; Same id used for the cell-surface complex in reporter assays; also called human GARP-proTGFβ1 complex; GARP-ProTGFb1
Experimental: as §1, §2, §3

mLTBP3-proTGFβ1 [4] = target: T6, mLTBP3-proTGFβ1 (mouse); assay: SPR (Biacore), Fab
T6 construct: Murine LLC; also called murine LTBP3-proTGFβ1 complex
Experimental: as §1, §2, §3

hLTBP3-proTGFβ1 [5] = target: T1, hLTBP3-proTGFβ1; assay: SPR (Biacore), Fab; affinity relative to Ref
Experimental: as §1, §2, §3

mLTBP1-proTGFβ1 [6] = target: T2, mLTBP1-proTGFβ1; assay: SPR (Biacore), Fab; affinity relative to Ref
Experimental: as §1, §2, §3

hLTBP1-proTGFβ1 [7] = target: T4, hLTBP1-proTGFβ1; assay: SPR (Biacore), Fab; affinity relative to Ref
Experimental: as §1, §2, §3

mLTBP3-proTGFβ1 [8] = target: T6, mLTBP3-proTGFβ1; assay: SPR (Biacore), Fab; affinity relative to Ref
Experimental: as §1, §2, §3

T3 sequence (G3XA59 18-663, chain 1 of 2): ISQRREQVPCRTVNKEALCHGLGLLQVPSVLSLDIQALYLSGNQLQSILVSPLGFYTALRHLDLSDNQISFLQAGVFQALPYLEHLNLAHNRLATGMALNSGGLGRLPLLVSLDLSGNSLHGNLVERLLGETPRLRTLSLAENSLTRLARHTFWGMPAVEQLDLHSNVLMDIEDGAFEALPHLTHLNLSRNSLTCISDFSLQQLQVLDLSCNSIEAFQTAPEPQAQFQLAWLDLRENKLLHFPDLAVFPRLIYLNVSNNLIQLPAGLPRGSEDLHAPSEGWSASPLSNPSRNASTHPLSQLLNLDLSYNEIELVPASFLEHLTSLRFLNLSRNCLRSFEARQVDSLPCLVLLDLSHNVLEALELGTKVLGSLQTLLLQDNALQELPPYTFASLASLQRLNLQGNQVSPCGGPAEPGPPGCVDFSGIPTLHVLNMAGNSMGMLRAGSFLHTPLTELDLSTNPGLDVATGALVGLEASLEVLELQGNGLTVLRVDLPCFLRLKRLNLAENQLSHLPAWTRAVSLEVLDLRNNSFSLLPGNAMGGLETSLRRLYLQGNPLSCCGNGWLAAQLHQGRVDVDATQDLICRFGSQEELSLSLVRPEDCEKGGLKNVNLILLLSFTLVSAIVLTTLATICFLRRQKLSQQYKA
T3 sequence (P04202 30-390, chain 2 of 2, further chain): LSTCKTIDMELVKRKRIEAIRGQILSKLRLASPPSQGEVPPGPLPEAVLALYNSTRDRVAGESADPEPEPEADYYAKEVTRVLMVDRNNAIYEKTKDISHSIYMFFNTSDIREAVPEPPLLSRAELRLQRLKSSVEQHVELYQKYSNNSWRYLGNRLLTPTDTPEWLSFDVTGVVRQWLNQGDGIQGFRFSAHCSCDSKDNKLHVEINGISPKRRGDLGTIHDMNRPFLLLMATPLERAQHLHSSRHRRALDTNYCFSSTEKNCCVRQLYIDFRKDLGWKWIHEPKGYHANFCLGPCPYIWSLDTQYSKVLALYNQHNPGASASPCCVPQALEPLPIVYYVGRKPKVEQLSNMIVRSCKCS
T2 sequence (Q8CG19 339-1712): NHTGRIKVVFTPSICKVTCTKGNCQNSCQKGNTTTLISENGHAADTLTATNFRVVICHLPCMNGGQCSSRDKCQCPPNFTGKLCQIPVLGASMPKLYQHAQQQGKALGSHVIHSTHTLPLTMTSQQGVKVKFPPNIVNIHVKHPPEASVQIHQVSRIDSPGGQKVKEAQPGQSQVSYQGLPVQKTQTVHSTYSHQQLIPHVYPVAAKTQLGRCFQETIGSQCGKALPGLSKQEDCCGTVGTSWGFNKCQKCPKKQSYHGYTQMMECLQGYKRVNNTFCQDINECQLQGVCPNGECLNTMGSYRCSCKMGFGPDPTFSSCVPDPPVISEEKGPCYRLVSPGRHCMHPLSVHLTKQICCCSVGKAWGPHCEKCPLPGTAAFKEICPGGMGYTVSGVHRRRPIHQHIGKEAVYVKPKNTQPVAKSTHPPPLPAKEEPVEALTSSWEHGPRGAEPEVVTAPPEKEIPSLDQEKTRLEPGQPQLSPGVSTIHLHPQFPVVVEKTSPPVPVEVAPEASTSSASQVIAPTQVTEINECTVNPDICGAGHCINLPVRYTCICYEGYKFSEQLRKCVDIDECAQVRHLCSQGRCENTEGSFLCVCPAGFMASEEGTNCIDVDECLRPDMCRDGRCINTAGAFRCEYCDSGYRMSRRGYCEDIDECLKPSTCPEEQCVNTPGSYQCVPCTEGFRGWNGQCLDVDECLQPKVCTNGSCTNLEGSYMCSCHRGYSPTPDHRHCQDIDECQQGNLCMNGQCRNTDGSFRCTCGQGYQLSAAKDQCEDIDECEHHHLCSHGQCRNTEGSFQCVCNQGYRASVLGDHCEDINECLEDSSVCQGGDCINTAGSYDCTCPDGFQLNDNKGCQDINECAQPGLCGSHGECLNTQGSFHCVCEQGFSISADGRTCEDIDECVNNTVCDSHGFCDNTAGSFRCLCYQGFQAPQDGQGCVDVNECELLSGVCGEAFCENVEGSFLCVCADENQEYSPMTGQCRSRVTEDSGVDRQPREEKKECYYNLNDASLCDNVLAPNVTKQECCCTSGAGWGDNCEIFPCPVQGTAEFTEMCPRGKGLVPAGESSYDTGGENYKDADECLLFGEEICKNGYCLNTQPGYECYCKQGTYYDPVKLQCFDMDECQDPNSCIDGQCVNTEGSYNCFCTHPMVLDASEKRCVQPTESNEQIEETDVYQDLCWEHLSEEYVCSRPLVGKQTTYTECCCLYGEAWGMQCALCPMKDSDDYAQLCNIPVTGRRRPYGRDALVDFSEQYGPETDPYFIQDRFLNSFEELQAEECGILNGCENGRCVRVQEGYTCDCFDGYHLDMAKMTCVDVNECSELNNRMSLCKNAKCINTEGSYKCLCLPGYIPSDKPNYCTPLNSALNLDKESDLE
T6 sequence (Q61810 39-1253, chain 1 of 2): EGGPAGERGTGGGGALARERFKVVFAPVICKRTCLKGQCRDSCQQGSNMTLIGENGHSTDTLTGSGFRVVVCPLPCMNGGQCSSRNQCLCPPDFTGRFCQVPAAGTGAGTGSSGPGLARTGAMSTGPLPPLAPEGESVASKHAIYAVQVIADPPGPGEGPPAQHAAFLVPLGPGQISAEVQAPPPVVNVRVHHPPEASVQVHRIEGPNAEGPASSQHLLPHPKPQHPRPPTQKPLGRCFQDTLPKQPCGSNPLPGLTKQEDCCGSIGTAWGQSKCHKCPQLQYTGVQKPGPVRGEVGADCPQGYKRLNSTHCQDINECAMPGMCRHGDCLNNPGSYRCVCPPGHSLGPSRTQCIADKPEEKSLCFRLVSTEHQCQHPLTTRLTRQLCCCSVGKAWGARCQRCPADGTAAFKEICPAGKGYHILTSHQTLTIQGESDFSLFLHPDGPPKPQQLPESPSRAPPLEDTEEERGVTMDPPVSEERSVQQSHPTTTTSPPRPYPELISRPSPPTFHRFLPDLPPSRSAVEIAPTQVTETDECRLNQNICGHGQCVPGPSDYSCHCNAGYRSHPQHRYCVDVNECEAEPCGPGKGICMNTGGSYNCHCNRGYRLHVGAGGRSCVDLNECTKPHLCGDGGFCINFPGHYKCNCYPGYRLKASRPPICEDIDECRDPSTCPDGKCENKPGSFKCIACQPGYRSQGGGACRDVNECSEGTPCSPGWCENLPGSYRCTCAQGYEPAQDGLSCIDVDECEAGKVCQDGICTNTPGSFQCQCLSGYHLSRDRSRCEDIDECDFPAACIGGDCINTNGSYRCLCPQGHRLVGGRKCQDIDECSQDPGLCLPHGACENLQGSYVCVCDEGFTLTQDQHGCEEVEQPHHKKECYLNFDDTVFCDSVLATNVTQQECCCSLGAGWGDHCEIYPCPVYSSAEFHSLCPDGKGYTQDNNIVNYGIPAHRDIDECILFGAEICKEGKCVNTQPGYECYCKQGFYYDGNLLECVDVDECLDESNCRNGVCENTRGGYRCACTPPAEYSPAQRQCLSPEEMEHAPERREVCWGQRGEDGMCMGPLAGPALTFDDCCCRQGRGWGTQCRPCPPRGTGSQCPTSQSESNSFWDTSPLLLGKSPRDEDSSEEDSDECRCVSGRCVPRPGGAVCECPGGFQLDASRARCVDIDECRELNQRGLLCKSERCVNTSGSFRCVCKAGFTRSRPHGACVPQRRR
T6 sequence (P04202 30-390, chain 2 of 2, further chain): as the sequence (P04202 30-390, chain 2 of 2, further chain) above
T5 sequence (Q14392 18-627 limits assumed, chain 1 of 2): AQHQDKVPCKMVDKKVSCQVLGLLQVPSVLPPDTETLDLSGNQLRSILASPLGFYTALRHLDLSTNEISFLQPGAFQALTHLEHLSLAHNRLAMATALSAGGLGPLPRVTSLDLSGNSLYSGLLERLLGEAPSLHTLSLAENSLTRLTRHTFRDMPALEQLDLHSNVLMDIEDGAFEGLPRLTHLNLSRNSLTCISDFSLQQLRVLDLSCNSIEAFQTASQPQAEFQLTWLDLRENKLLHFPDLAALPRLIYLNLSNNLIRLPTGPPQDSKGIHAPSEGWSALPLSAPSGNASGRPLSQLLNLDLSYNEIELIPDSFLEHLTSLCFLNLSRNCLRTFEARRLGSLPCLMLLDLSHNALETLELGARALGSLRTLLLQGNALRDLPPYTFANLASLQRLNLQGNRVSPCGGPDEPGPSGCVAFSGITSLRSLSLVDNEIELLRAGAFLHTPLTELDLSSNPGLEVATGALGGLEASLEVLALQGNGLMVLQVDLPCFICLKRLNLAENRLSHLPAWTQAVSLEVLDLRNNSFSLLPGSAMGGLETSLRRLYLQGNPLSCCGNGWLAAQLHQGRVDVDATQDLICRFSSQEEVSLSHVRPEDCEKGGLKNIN
T5 sequence (P01137 30-390 limits assumed, chain 2 of 2): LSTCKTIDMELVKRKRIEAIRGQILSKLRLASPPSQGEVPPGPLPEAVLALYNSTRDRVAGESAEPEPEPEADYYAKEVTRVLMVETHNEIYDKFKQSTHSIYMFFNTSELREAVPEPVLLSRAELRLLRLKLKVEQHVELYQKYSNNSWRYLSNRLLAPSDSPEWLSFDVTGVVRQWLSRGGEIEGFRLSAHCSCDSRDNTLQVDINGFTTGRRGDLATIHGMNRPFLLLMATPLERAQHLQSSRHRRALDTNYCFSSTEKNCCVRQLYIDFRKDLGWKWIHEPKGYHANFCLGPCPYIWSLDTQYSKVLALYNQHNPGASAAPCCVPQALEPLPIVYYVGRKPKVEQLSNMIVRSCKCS

Kd (hLTBP3-proTGFβ1 [1]): 0.127 nM
koff (hLTBP3-proTGFβ1 [1]): 0.000128 s⁻¹
kon (hLTBP3-proTGFβ1 [1]): 1e+06 M⁻¹ s⁻¹
Kd (mLTBP1-proTGFβ1 [2]): 0.0534 nM
koff (mLTBP1-proTGFβ1 [2]): 9.87e-05 s⁻¹
kon (mLTBP1-proTGFβ1 [2]): 1.85e+06 M⁻¹ s⁻¹
Kd (mGARP-proTGFβ1): 0.274 nM
koff (mGARP-proTGFβ1): 0.000278 s⁻¹
kon (mGARP-proTGFβ1): 1.02e+06 M⁻¹ s⁻¹
Kd (hLTBP1-proTGFβ1 [3]): 0.0502 nM
koff (hLTBP1-proTGFβ1 [3]): 8.81e-05 s⁻¹
kon (hLTBP1-proTGFβ1 [3]): 1.75e+06 M⁻¹ s⁻¹
Kd (hGARP-proTGFβ1): 0.23 nM
koff (hGARP-proTGFβ1): 0.000222 s⁻¹
kon (hGARP-proTGFβ1): 965000 M⁻¹ s⁻¹
Kd (mLTBP3-proTGFβ1 [4]): 0.0956 nM
koff (mLTBP3-proTGFβ1 [4]): 0.000115 s⁻¹
kon (mLTBP3-proTGFβ1 [4]): 1.2e+06 M⁻¹ s⁻¹
Fold difference (hLTBP3-proTGFβ1 [5]): 72 fold
Fold difference (mLTBP1-proTGFβ1 [6]): 123 fold
Fold difference (hLTBP1-proTGFβ1 [7]): 134 fold
Fold difference (mLTBP3-proTGFβ1 [8]): 91 fold
B1: Ab46 Fab (Fab, V domains shown)
VH: EVQLLESGGGLVQPGGSLRLSCAASGFTFADYAMTWVRQAPGKGLEWVSAISGSGAATYFADSVKGRFTISRDNSKNTLYLQMNSLRAEDTAVYYCARVSSGHWDYDYWGQGTLVTVSS
VL: DIQLTQSPSSLSASVGDRVTITCRASQSISSYLNWYQQKPGKAPKLLIYAASGLESGVPSRFSGSGSGTDFTLTISSLQPEDFATYYCQQTYGVPLTFGGGTKVEIK
notes: Fab fragment
